This note sets out measurements from patent US20220169722A1 (WUXI BIOLOGICS IRELAND, published 2022).

By EC50 is commonly meant the midpoint of the concentration-response curve. Low values mean a more potent agent, high ones a less potent agent. The Kd is the equilibrium constant for the complex coming apart. Read a low Kd as tighter binding. The term IC50 denotes the concentration needed to halve the response being measured. Read a low IC50 as higher potency.

Test [1] deals with T1, mouse LAG-3 on transfected cells (mouse, UniProt Q61790 24-521).
T1 construct: whole, on cells; Flp-In-CHO cells transfected with mouse LAG-3; also called cell surface mouse LAG-3; murine LAG-3
T1 sequence (looked up): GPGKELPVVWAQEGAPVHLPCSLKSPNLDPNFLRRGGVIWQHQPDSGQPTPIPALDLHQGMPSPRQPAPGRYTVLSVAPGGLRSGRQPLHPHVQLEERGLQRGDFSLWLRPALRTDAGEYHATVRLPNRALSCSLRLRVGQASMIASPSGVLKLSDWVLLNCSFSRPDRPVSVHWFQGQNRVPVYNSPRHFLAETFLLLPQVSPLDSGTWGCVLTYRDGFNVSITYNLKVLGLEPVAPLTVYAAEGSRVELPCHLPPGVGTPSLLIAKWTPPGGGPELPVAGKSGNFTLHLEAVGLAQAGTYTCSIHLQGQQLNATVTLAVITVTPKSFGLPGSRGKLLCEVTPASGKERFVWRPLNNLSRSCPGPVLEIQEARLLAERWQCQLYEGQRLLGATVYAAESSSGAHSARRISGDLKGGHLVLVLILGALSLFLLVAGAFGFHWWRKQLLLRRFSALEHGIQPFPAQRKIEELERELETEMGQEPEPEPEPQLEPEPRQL
Put plainly: FACS on mouse LAG-3 transfected cells. The procedure: Similarly, cross-reactivity to cynomolgus or murine LAG-3 was tested by FACS with cyno or murine LAG-3 transfected cell lines.

For test [2], the target named is T2, human LAG-3 on transfected cells (human, UniProt P18627 23-525).
T2 construct: whole, on cells; Flp-In-293 or CHO-K1 cells transfected with full length human LAG-3; also called cell surface human LAG-3
T2 sequence (looked up): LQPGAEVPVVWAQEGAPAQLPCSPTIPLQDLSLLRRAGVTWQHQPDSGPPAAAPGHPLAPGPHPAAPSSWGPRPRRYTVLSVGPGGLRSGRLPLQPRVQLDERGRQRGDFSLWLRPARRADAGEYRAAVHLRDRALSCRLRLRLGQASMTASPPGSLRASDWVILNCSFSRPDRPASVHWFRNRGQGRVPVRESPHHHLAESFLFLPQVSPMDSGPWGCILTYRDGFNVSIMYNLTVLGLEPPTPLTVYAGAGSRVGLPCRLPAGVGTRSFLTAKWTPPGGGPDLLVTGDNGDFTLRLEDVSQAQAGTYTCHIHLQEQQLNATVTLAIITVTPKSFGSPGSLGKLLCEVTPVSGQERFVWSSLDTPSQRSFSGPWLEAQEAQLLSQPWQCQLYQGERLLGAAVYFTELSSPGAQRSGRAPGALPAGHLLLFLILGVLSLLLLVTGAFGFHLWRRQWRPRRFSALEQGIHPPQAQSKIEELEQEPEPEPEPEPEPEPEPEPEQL
Put plainly: FACS affinity on transfected cells.

For test [3], the target named is T3, cynomolgus LAG-3 on transfected cells (cynomolgus monkey).
T3 construct: whole, on cells; 293F cells transfected with cynomolgus LAG-3; also called cell surface cynomolgus LAG-3; monkey LAG-3
Put plainly: FACS affinity on transfected cells.

Test [4] concerns the target T4, human LAG-3 protein (SPR analyte) (human, UniProt P18627 23-450).
T4 construct: extracellular domain
T4 sequence (looked up): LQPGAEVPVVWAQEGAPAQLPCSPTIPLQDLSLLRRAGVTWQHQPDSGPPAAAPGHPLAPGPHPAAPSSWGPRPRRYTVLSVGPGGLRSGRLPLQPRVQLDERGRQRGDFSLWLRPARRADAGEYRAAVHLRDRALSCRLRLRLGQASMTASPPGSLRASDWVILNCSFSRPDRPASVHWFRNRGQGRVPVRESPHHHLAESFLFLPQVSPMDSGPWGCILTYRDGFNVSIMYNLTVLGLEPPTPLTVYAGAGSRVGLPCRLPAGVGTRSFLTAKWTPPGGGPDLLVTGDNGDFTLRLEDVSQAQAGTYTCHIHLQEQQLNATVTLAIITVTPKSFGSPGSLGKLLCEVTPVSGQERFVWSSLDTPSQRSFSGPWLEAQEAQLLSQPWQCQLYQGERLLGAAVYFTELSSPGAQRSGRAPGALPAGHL
The experiment in a line: SPR Biacore 8K, Ab as ligand, LAG-3 as analyte. On the technique in general: Surface plasmon resonance follows binding to a sensor surface in real time, without labels.

The target in test [5] is T5, mouse LAG-3 protein (SPR analyte) (mouse, UniProt Q61790 24-442).
T5 construct: extracellular domain
T5 sequence (looked up): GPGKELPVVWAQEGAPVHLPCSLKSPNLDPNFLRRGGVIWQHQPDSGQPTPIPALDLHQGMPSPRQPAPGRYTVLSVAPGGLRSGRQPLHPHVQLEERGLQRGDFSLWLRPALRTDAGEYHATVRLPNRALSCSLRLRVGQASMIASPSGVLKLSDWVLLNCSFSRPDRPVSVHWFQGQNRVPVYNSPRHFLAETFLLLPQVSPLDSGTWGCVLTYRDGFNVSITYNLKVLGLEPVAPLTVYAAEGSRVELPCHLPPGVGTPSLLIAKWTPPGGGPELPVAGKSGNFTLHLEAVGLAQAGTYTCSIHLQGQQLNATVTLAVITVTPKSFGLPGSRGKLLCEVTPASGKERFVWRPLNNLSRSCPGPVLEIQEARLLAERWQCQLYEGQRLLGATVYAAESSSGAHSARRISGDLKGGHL
Put plainly: SPR Biacore 8K, Ab as ligand, LAG-3 as analyte.

A further test addresses human CD4 (human, UniProt P01730 26-390, limits assumed). The experiment in a line: ELISA, plates coated with human CD4, goat anti-human IgG Fc-HRP. The method, then:
Cross-reactivity to human CD4 was measured by ELISA. Plates were coated with human CD4 at 1 μg/ml overnight at 4° C. After blocking and washing, 1 μg/ml of LAG-3 antibodies were added to the plates and incubated at room temperature for 1 h. The plates were then washed and subsequently incubated with goat-anti human IgG Fc-HRP for 45 min. After washing, TMB substrate was added and the color reaction was stopped by 2M HCl. The absorbance at 450 nm was read using a microplate reader.
A general note: An ELISA detects its analyte on a solid surface through an enzyme-linked reagent.

The target of test [6] is T2, human LAG-3 on transfected cells. Put plainly: FACS, serial dilutions on human LAG-3 transfected cells, PE-labeled secondary antibody. Background: In flow cytometry, cells or beads pass a laser one at a time.
The target in test [7] is T6, mouse Fc (mFc)-tagged human LAG-3 (human, UniProt P18627 23-450).
T6 construct: extracellular domain
T6 sequence (looked up): T4 sequence (looked up)
Put plainly: ELISA blocking: antibody pre-mixed with mFc-tagged human LAG-3, added to plates coated with human LSECtin (blocked ligand); detection goat anti-mouse IgG Fc-HRP. The procedure:
(§1) 96-well plates were coated with human LSECtin or Galectin-3 at 0.5 μg/ml overnight at 4° C., respectively. […] After blocking and washing, the mixture was transferred to the plates and incubated at room temperature for 1 h. The plates were then washed and subsequently incubated with the secondary antibody goat-anti Mouse IgG Fc-HRP for 1 h. After washing, TMB substrate was added and the color reaction was stopped by 2M HCl. The absorbance at 450 nm was read using a microplate reader.

Test [8] has as its target T6, mouse Fc (mFc)-tagged human LAG-3. Put plainly: ELISA blocking: antibody pre-mixed with mFc-tagged human LAG-3, added to plates coated with human Galectin-3 (blocked ligand); detection goat anti-mouse IgG Fc-HRP. The procedure: as §1

Where only a bound is given, the exact number is not on record here.

B1: W3396-R2-2 (Fc fusion)
VHH: QVQLVESGGGVVQPGGSLRLSCAASGLTLSQYTMGWFRQAPGKERELVAAIHWTSSVTDYADSVYGRFTISRDDSKNTGYLQMNSLRAEDTAVYYCAATHYYTHRGPFDYWGQGTLVTVSS
B1: the half-maximal effective concentration (EC50) in test [1] is 130 pM; in test [6], 228 pM. The Kd was 460 pM in test [2], 165 pM in test [4] and less than 0.575 pM in [5]. In addition, the Bmax in test [3] is 300 pM. Also, the binding result in the test with human CD4 was “no binding (tested: 33.4 nM)”. Further, the results for the IC50 in [7] and in test [8] were 1610 pM and 1230 pM, respectively.
